Source: patent US20220119534A1 (DRAGONFLY THERAPEUTICS, published 2022)
Numbering of substitutions follows the chain as printed. Names may count otherwise. “And” between values parts separate entries of the source, which are not always exact repeats. Equal entries are not always repeated. Values belong to the binder of their own block, whether it stands above or below them.

Columns and labels:
Human CLEC12A-His [1] = biological target: T1, Human CLEC12A-His (human, UniProt Q5QGZ9 65-265); experiment: SPR Biacore 8K 37 C; TriNKET captured on anti-hFc chip, hCLEC12A-His as analyte; 1:1 fit; after 2 wks 40 C at pH 8.0, n=2
T1 construct: Recombinant soluble protein made in house (Dragonfly Tx); The hCLEC12A spot of the HuProt array is written under this molecule as well; also called hCLEC12A-His; hCLEC12A; not shown: His tag
T1 sequence: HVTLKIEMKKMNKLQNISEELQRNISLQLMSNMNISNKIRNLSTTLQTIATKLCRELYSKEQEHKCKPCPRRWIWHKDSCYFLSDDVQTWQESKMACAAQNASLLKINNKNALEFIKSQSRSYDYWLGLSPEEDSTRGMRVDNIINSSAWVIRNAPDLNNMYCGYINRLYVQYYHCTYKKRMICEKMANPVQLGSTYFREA

Human CLEC12A-His [2] = biological target: T1, Human CLEC12A-His; experiment: SPR Biacore 8K 37 C; TriNKET captured on anti-hFc chip, hCLEC12A-His as analyte; 1:1 fit; after 2 wks 2-8 C in CST pH 7.0, n=2
mFc-cNKG2D = biological target: T2, mFc-cNKG2D (cynomolgus monkey, UniProt P61252 73-216); experiment: SPR Biacore 37 C; mFc-tagged cyno NKG2D dimer, TriNKET as analyte; kinetics fit
T2 construct: extracellular domain; Made in house (Dragonfly Tx); also called recombinant cyno NKG2D extracellular domain (ECD); mFc-tagged cyno NKG2D dimer; not shown: mouse Fc tag
T2 sequence (looked up): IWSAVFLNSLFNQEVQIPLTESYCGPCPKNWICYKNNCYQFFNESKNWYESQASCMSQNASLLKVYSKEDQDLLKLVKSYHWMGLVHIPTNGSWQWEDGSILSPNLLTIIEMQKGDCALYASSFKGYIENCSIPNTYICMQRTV

Human CLEC12A-His [3] = biological target: T3, Human CLEC12A-His (human, UniProt Q5QGZ9 65-265); experiment: SPR; sample after pH 8.0, 40 C, 2 weeks
T3 construct: Recombinant soluble protein made in house; also called hCLEC12A-His; hCLEC12A; not shown: His tag
T3 sequence: T1 sequence

[4] = biological target: T4, human CLEC12A on cells (HL60, PL21, Ba/F3-hCLEC12A) (human, UniProt Q5QGZ9 1-265); experiment: flow cytometry, PL21 cells
T4 construct: Endogenous on the AML lines HL60 and PL21; brought into mouse Ba/F3 cells by retroviral transduction; The cell line stands under assay; also called CLL-1
T4 sequence: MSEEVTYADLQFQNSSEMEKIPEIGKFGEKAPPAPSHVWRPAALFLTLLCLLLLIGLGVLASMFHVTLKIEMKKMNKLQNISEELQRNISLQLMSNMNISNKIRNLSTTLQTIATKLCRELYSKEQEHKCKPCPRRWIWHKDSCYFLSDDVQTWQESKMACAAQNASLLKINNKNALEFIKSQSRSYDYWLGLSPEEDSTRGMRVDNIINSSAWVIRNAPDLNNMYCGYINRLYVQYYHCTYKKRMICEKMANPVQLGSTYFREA

[5] = biological target: T4, human CLEC12A on cells (HL60, PL21, …); experiment: flow cytometry, 40 nM, MFI after 2 h 37 C relative to 2 h on ice, HL60 cells
[6] = biological target: T5, Human CLEC12A-His (recombinant, K244 WT) (human, UniProt Q5QGZ9 65-265); experiment: SPR, two-state fit; control sample
T5 construct: Made in house (Dragonfly Tx); also called hCLEC12A; hCLEC12A-His; not shown: His tag
T5 sequence: T1 sequence

[7] = biological target: BC089418 (HuProt array JHU16002.P168E09) (human); experiment: HuProt human proteome microarray, AB0089 at 1 µg/ml
[8] = biological target: T5, Human CLEC12A-His (recombinant, K244 WT); experiment: as above
[9] = biological target: T6, ECDHDC1 (HuProt array JHU25034.P240F11) (human); experiment: as above
T6 construct: Name as printed; may be a misprint of a gene name
T6 sequence (Q9NTX5 whole entry): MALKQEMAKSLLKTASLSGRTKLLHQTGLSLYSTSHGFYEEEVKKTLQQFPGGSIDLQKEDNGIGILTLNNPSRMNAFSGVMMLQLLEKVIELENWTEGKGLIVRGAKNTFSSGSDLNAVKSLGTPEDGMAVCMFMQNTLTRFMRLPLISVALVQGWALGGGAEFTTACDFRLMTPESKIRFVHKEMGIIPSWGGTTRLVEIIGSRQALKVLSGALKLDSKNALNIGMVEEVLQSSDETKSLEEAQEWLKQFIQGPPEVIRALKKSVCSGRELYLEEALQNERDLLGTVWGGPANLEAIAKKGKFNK

[10] = biological target: T7, De-glycosylated human CLEC12A (human, UniProt Q5QGZ9 65-265, treated with PNGaseF (N-linked glycans removed)); experiment: SPR, two-state fit (kd1)
T7 construct: Same recombinant antigen as m2 after PNGaseF; also called De-glycosylated CLEC12A
T7 sequence: T1 sequence

[11] = biological target: T8, De-sialylated human CLEC12A (human, UniProt Q5QGZ9 65-265, treated with neuraminidase (terminal sialic acids removed)); experiment: SPR, two-state fit (kd1)
T8 construct: Same recombinant antigen as m2 after neuraminidase; also called De-sialylated CLEC12A
T8 sequence: T1 sequence

[12] = biological target: T5, Human CLEC12A-His (recombinant, K244 WT); experiment: SPR 37C, two-state fit (kd1), average
BCMA = biological target: T9, BCMA; experiment: SPR specificity test
T9 chain: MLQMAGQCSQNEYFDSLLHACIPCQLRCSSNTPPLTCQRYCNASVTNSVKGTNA

HER2 = experiment: SPR specificity test
[13] = biological target: T10, recombinant human CLEC12A-His (human, UniProt Q5QGZ9 65-265); experiment: SPR 37C, average
T10 construct: also called hCLEC12A-His; hCLEC12A
T10 sequence: T1 sequence

[14] = biological target: T11, human CLEC12A expressed on cells (human, UniProt Q5QGZ9 1-265); experiment: flow cytometry (gMFI) on CLEC12A+ PL-21 AML cells
T11 construct: Transduced isogenic cells or endogenous expression on AML cells; also called RMA-hCLEC12A; Ba/F3-hCLEC12A
T11 sequence: T4 sequence

Kd (Human CLEC12A-His [1]): 1 nM
koff (Human CLEC12A-His [1]): 0.000845 s⁻¹
kon (Human CLEC12A-His [1]): 835000 M⁻¹ s⁻¹
Kd (Human CLEC12A-His [2]): 0.89 nM
koff (Human CLEC12A-His [2]): 0.0006 s⁻¹
kon (Human CLEC12A-His [2]): 672000 M⁻¹ s⁻¹
Kd (mFc-cNKG2D): 831 nM and 825 nM and 931 nM and 769 nM
B1: F3'-1602 TriNKET (bispecific antibody, human IgG1, kappa)
chain: QLQLQESGPGLVKPSETLSLTCTVSGFSLTNYGLHWIRQPPGKCLEWIGVIWSGGKTDYNPSLKSRVTISKDTSKNQFSLKLSSVQAADTAVYYCAKYDYDDSLDYWGQGTLVTVSSGGGGSGGGGSGGGGSGGGGSDIQMTQSPSSLSASVGDRVTITCHASQNINFWLSWYQQKPGKAPKLLIYEASNLHTGVPSRFSGSGSGTRFTLTISSLQPEDIATYYCQQSHSYPLTFGCGTKLEIKGSDKTHTCPPCPAPELLGGPSVFLFPPKPKDTLMISRTPEVTCVVVDVSHEDPEVKFNWYVDGVEVHNAKTKPREEQYNSTYRVVSVLTVLHQDWLNGKEYKCKVSNKALPAPIEKTISKAKGQPREPRVYTLPPCRDELTKNQVSLTCLVKGFYPSDIAVEWESNGQPENNYKTTPPVLVSDGSFTLYSKLTVDKSRWQQGNVFSCSVMHEALHNHYTQKSLSLSPG
heavy: EVQLVESGGGLVKPGGSLRLSCAASGFTFSSYSMNWVRQAPGKGLEWVSSISSSSSYIYYADSVKGRFTISRDNAKNSLYLQMNSLRAEDTAVYYCARGAPIGAAAGWFDPWGQGTLVTVSSASTKGPSVFPLAPSSKSTSGGTAALGCLVKDYFPEPVTVSWNSGALTSGVHTFPAVLQSSGLYSLSSVVTVPSSSLGTQTYICNVNHKPSNTKVDKKVEPKSCDKTHTCPPCPAPELLGGPSVFLFPPKPKDTLMISRTPEVTCVVVDVSHEDPEVKFNWYVDGVEVHNAKTKPREEQYNSTYRVVSVLTVLHQDWLNGKEYKCKVSNKALPAPIEKTISKAKGQPREPQVCTLPPSRDELTENQVSLTCLVKGFYPSDIAVEWESNGQPENNYKTTPPVLDSDGSFFLYSWLTVDKSRWQQGNVFSCSVMHEALHNHYTQKSLSLSPG
light: DIQMTQSPSSVSASVGDRVTITCRASQGISSWLAWYQQKPGKAPKLLIYAASSLQSGVPSRFSGSGSGTDFTLTISSLQPEDFATYYCQQGVSFPRTFGGGTKVEIKRTVAAPSVFIFPPSDEQLKSGTASVVCLLNNFYPREAKVQWKVDNALQSGNSQESVTEQDSKDSTYSLSSTLTLSKADYEKHKVYACEVTHQGLSSPVTKSFNRGEC
notes: Trispecific F3' format: CLEC12A scFv-Fc paired with NKG2D Fab-Fc; Stressed and control samples of the stability studies are the same molecule; also called AB0237

Kd (Human CLEC12A-His [3]): 1.66 nM
koff (Human CLEC12A-His [3]): 0.00128 s⁻¹
kon (Human CLEC12A-His [3]): 768000 M⁻¹ s⁻¹
EC50 [4]: 0.43 nM
percent surface retention [5]: 103%
B2: AB0192 TriNKET (other)
chain: EVQLVESGGGVVQPGGSLRLSCAASGFTFNAFGMHWVRQAPGKCLEWVAFISSGSTSIYYANTVKGRFTISRDNSKNTLYLQMNSLRAEDTAVYYCARDGYPTGGAMDYWGQGTSVTVSSGGGGSGGGGSGGGGSGGGGSDIQMTQSPSSLSASVGDRVTITCKASQDIYNYLSWFQQKPGKAPKPLIYRANILVSGVPSRFSGSGSGQDYTFTISSLQPEDIATYYCLQFDAFPFTFGCGTKLEIKGSDKTHTCPPCPAPELLGGPSVFLFPPKPKDTLMISRTPEVTCVVVDVSHEDPEVKFNWYVDGVEVHNAKTKPREEQYNSTYRVVSVLTVLHQDWLNGKEYKCKVSNKALPAPIEKTISKAKGQPREPRVYTLPPCRDELTKNQVSLTCLVKGFYPSDIAVEWESNGQPENNYKTTPPVLVSDGSFTLYSKLTVDKSRWQQGNVFSCSVMHEALHNHYTQKSLSLSPG
heavy: B1 heavy
light: B1 light
notes: the condition stands under assay; also called AB0192 Lot AB0192-005

Kd [6]: 0.9 nM
Z score [7]: 3.7
Z score [8]: 151
Z score [9]: 3.75
koff [10]: 0.00633 s⁻¹
koff [11]: 0.0329 s⁻¹
koff [12]: 0.0435 s⁻¹
B3: AB0089 TriNKET (bispecific antibody, human IgG1, kappa)
chain: B1 chain with S53V, K56A, K71V, Y98G, D101G, S103T, R207D, I220F
heavy: B1 heavy
light: B1 light
notes: F3' format heterodimer of three chains; human IgG1 Fc with EW-RVT and Y349C/S354C mutations; also called AB0089 Lot AB0089-002; CLEC12A TriNKET AB0089

binding result (BCMA): no binding (tested: 500 nM)
binding result (HER2): no binding (tested: 500 nM)
Kd [13]: 0.59 nM
koff [13]: 0.000494 s⁻¹
kon [13]: 844000 M⁻¹ s⁻¹
EC50 [14]: 1.2 nM
B4: F3'-1602 TriNKET (other)
chain: B1 chain
heavy: B1 heavy
light: B1 light
notes: CLEC12A scFv-Fc, NKG2D A49MI Fab-Fc, human IgG1 Fc; also called AB0237
